The text below walks through data of FireProtDB (doi:10.1021/bi962163z).

The chains are these.
B1: Annexin A5, P08758 (parent)
chain: MAQVLRGTVTDFPGFDERADAETLRKAMKGLGTDEESILTLLTSRSNAQRQEISAAFKTLFGRDLLDDLKSELTGKFEKLIVALMKPSRLYDAYELKHALKGAGTNEKVLTEIIASRTPEELRAIKQVYEEEYGSSLEDDVVGDTSGYYQRMLVVLLQANRDPDAGIDEAQVEQDAQALFQAGELKWGTDEEKFITIFGTRSVSHLRKVFDKYMTISGFQIEETIDRETSGNLEQLLLAVVKSIRSIPAYLAETLYYAMKGAGTDDHTLIRVMVSRSEIDLFNIRKEFRKNFATSLYSMIKGDTSGDYKKALLLLCGEDD

For orientation: Tm means the temperature at the midpoint of the melting transition.

In the series the parent is B1. The following applies: Homo sapiens; pH 8; Thermal; DSC; Tris 50 mM; KCl 100 mM; reversible: no; structure 1AVR; whole UniProt chain shown.
MAQVLRGTVTDFPGFDGRADAETLRKAMKGLGTDEESILTLLTSRSNAQRQEISAAFKTLFGRDLLDDLKSELTGKFEKLIVALMKPSRLYDAYELKHALKGAGTNEKVLTEIIASRTPEELRAIKQVYEEEYGSSLEDDVVGDTSGYYQRMLVVLLQANRDPDAGIDEAQVEQDAQALFQAGELKWGTDEEKFITIFGTRSVSHLRKVFDKYMTISGFQIEETIDRETSGNLEQLLLAVVKSIRSIPAYLAETLYYAMKGAGTDDHTLIRVMVSRSEIDLFNIRKEFRKNFATSLYSMIKGDTSGDYKKALLLLCGEDD [E17G]: the midpoint of thermal melting (Tm) turned out to be 52.8 °C, the “unfolding enthalpy (calorimetric)” value came to 164 kcal/mol and the “unfolding enthalpy (van 't Hoff)” value came out at 173 kcal/mol.
